Test results: publication PMC10206775

Columns and labels:
[1] = target: Bombina maxima IgG Fc-binding protein (FCGBP) (Bombina maxima (endogenous in skin secretions)); assay: BLI; FCGBP (10 μg/ml, 0.01 M sodium acetate pH 4.0) amine-coupled to AR2G biosensors; βγ-CAT 1000-31.25 nM in PBS, association 300 s, dissociation 180 s; global fit, 1:1 binding model
[2] = target: BmTFF3 (β-subunit of βγ-CAT) (Bombina maxima (endogenous in skin secretions))

Substance | Kd [1] | dye release from calcein liposomes (fluorescence at 518 nm, % of maximum) by BmALP1 polymer (50 nM) with BmTFF3 (200 nM) and FCGBP at 25, 50 and 150 nM [2]
βγ-CAT complex (BmALP1 and BmTFF3) | 21.2 nM | 
BmALP1 (α-subunit of βγ-CAT) (natural protein) |  | 76.8%
